The RNAGym collection of RNA variant scans (doi:10.1073/pnas.2313332121)
Variants at the floor of the assay were thinned out.

B1: TPR 5TU (parent)
chain: GGAUCUUCUCGAUCUAACAAAAAAGACAAAUCUGCCACAAAGCUUGAGAGCAUCUUCGGAUGCAGAGGCGGCAGCCUUCGGUGGCGCGAUAGCGCCAACGUUCUCAACUAUGACACGCAAAACGCGUGCUCCGUUGAAUGGAGUUUAUCAUG

Variants of: B1
Assay: polymerase ribozyme fitness, log enrichment relative to wild type (log ratio); higher = more active; in vitro selection for triplet polymerase activity
How it was run: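 To select mutant libraries of each subunit of a heterodimeric triplet polymerase ribozyme, built by PCR and transcribed, each was annealed with a biotinylated primer, partner subunit and triplets, then incubated frozen at −7 °C. Extended constructs were gel-excised, captured on streptavidin beads and amplified by RT-PCR, in one round carried out in triplicate. Illumina sequencing of input and output libraries kept genotypes with ≥10 input reads and ≥1 read per output. Fitness is the base-2 logarithm of genotype enrichment relative to wild-type enrichment, from inverse-variance-weighted replicate averages.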

Variant | polymerase ribozyme fitness (log ratio)
GGAUCUUCUCGAUUUAACAAAAAAGACAAAUCUGCCACCAAGCUUGAGAGCAUCUUCGGAUGCAGAGGCGCCAGCCUUCGGUGGUGCGAUAGCGCCGACGUUCUCAACUAUGACACGCAAAACGCGUGCUCCGUUGAAUGGAGUUUAUCAUG [C14U A39C G71C C85U A97G] | ≤ -4.2
GGAUCUUCUCGAUUUAACAAAAAAGACAAAUCUGCCACAAAGCUUGAGAGCAUCUUCGGAUGCAGAGGCGGCAGCCUUCGGUGGCGCGAUAGCGUCAACGGUCUUAACUAUGACACGCAAAACGUGUGCUCCGUUGAAUGGUGUUUAUCAUG [C14U C95U U101G C105U C125U A142U] | ≤ -4.2
GGAUCUUCUCGAUUUAACAAAAAAGACAAAUCUGGCACAAAGCUUGAGAGCAUCUUCGGAUGCAGAGGCGGCAGUGUUCGGUGGCGCGAUAGCGUCAACGUUCUCAACUAUGACACGCAAAACGCGUGCUCCGUUGAAUGGAGUUUAUCAUG [C14U C35G C75U C76G C95U] | -3.81
GGAUCUUCUCGAUUUAACAAAAAUGACAAAUCUGCCACAAAGCUUGAGAGCAUCAUCGGAUGCAGAGGCCGCAGCCUUCGGUGGCGCGAUAGCACCAACGUUCUCAACUAUGACAGGCAAAACGCGUGCUCCGUUGAAUGGAGUUUAUCAUG [C14U A24U U55A G70C G94A C116G] | ≤ -4.2
GGAUCUUCUCGAUUUAACAAAAAAGACAAAUCUGCCACACAGCUUGAGAGCAUUUUCGGAUGAAGAGGCGGCAGCCUUCGGUGGCGCGAUAGCGUCAACGUUCUCCACUAUGACACGCAAAACGCGUGCUCCGUUGAAUGGAGUUUAUCAUG [C14U A40C C54U C63A C95U A106C] | ≤ -4.2
GGAUCUUCUCGAUUUAACAAAAAAGACAAAUCUGCCACAAAGCUUACGAGCAUCUUAGGAUGCACAGGCGGCAGCCUUCGGUGGCUCGAUAGCGCUAACGUUCUCAACUAUGACACGCAAAACGCGUGCUCCGUUGAAUGGAGUUUAUCAUG [C14U G46A A47C C57A G65C G86U C96U] | ≤ -4.2
GGAUCUUCUCGAUUUAACAAAAAAGACAAAUCUGCCACAAAGCUUGAGAGCAUCUUCGGAUGCAGAGGCGGCAGCCUUCGGUGGCGCGAUAGCGCCAACGUUCUCAACUAUGACACGCAAAACGCGUGCUCCGUUGAAUGGAGUUUAUCCUG [C14U A150C] | ≤ -4.2
GGAUCUUCUCGAUUUAACAAAAAAGACAAAUCUGCCACAAAGCUUGAUAGCUUCUUCGGAUGCAGAGGCGGCAGCCUUCGGUGGCGCGAUAGCGCCAACGUUCUCAACUAUGACACGCAAAACGCGUGCUCCGUUGACUGGCGUUUAGCAUG [C14U G48U A52U A138C A142C U148G] | ≤ -4.2
GGAUCUUCUCGAUUUAACAAAAAAGACAAAUCUGCCACAAAGCUUGAGAGCAUCUUCGGAUGCAGAGGCGGCAGCCUUCGGUGGAGCGAUAGCGCCAACGUUCUCAACUAUGACACGCAAAACGCGUGCUCCGGUGAAUGGGGUUUAUCUUG [C14U C85A U134G A142G A150U] | ≤ -4.2
GGAUCUUCUCGAUUUAACAAAAAAGACAAAUCUGCCACAAAGCUUGAGAGCAUCUUCGGAUGCAGAGGCGGUAGCUUUCGGUGGCGCGAUAGCGCAAACGUUCUCAACUAUUACACGCAAAACGCGUGCUCCGUUGAAUGGAGUUUAUCAUG [C14U C72U C76U C96A G112U] | ≤ -4.2
GGAUCUUCUCGAUUUAACAAAAAAGACAAAUCUGCCACAAAGCUUGAGAGCAUCUUCGUAUGCAGAGGCGGCAGCCUUCGGUGGCGCGAUAGCGCCAACGUUCUCAACUAUGACACGCAAAACGCGUGCUCCGUUGAAUGGAGUUUAUCAUG [C14U G59U] | -1.23
GGAUCUUCUCGAUUUAACAAAAUAGACAAAUCUGCCACAAAGCUUGAGAGCAUCUCCGGAUGCAGAGGCGGCAGCCUUCGGUGGCGUGAGAGCGCCAACGUUCUCAACUAUGACACGCAAAACGCGUGCUCCGUUGAAUGGAGUUUAUCAUG [C14U A23U U56C C87U U90G] | ≤ -4.2
GGAUCUUCUCGAUUUAACAAAAAAGACAAAUCUGCCACAACGCUUGAGAUCCUCUUCGGAUGCAGAGGCGGCAGCCUUCGGUGACGCGAGCGCGCCAACGUUCUCAACUAUGACAUGCAAAACGCGUGCUCCGUUGAAUAGAGUUUAUCAUG [C14U A41C G50U A52C G84A U90G A91C C116U G140A] | ≤ -4.2
GGAUCUUCUCGAUUUAACAAAAAAGACAAUUCUGCCACAAAGCUUGAGAGCAGCUUCUGAUGCACAGGCGGCAACCUUCGGUGGCGCGAUAGCGCCAACGUUCUCAACUAUGACACGCAAAACGCGUGCUCCGUUGAAUGGAGUUUAUCAUG [C14U A30U U53G G58U G65C G74A] | ≤ -4.2
GGAUCUUCUCGAUUUAACAAAAAAGACAAAUCUGCCACAAAGCUUGAGAGCAUCUUCGGAUGCAGAGGCGGCAGCCUUCGGUGGCGCGAUGGCGCCAACGUUCUCAACUAUGACACGCAAAACGCGUGCUCCGUUGAAUGGAGUUUAUCAUG [C14U A91G] | -3.98
GGAUCUUCUCGAUUUAACAAAAAAGACAAAUCUGCCACAAAGCUUGAGAGCAUCUUCGGAUGCAGAGGCGGCAGCCUUCGGUGGCGCGAUAGCGCCAACGUUCUCAACUAUGACAGGCAAAACGCGUAGUCCGUGGAAUGGAGUUUAUCAUG [C14U C116G G128A C129G U135G] | ≤ -4.2
GGAUCUUCUCGAUUUAACAAAAAACACAAAUCUGCCAGAAAGCUUGAGAGCAUCUUCGGAUGCAGAAGAGGCAGCCUUCGGUGGCGCGAUAGCGCUAACGUUCUCAACUAUGACACGCAAGACGCGUGCUCCGUUGAAUGGAGUUUCUCAUG [C14U G25C C38G G67A C69A C96U A121G A147C] | ≤ -4.2
GGAUCUUCUCGAUUUAACAAAAAAGACAAAUGUGCCACAAAGCUUGAGAGCAUCUUCGGAUGCAGAGGAGGCAGCCUUCGGUGGCGCGAUAGCGCCAACGUUCUCAACUAUGACACGCAAAACGCGUGCUCCGUUGAAUGGAGUUUAUCAUG [C14U C32G C69A] | ≤ -4.2
GGAUCUUCUCGAUUUAACAAAAAAGACAAAUCUGCCACAAAGCUUGAGAGCAUCUUCGGAUGCAGAGGCGGCAACCUUCGGUGGCGCGAUAGCGCCAAAGUUCUCAACUAUGACACGCAAAACGCGUGCUCCGUUGAAUGGAGUUUAUCAUG [C14U G74A C99A] | ≤ -4.2
